Measurements: patent US20240034757A1 (OXFORD UNIVERSITY INNOVATION, published 2024)
Numbering of substitutions follows the chain as printed.

B1: CXCL4_HUMAN (ligand)
chain: EAEEDGDLQCLCVKTTSQVRPRHITSLEVIKAGPHCPTAQLIATLKNGRKICLDLQAPLYKKIIKKLLES
B2: P1172_IXORI (other)
chain: LHEDEIFTVDYCGTNCTKQSNGSWTTCPGNCSCYHEDGKTDGFCLSTEYTDFTQFPNLTSEEMDAATPRPE

What was measured:
[1] = target: T1, P1156_IXORI (Ixodes ricinus, UniProt V5HBW0 29-108); experiment: BLI [Cont.) C]
T1 sequence: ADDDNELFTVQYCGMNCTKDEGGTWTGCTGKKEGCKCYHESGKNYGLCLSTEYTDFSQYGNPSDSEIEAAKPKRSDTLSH

[2] = target: B2; experiment: BLI [Cont.]
[3] = target: T2, P1229_IXORI (Ixodes ricinus, UniProt A0A0K8R4R9 32-108); experiment: BLI [Cont.]
T2 sequence: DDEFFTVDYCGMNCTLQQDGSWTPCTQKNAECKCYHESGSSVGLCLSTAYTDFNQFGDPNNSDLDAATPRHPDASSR

[4] = target: T3, P1168_IXORI (Ixodes ricinus, UniProt A0A0K8RCU3 25-106); experiment: BLI [Cont.]
T3 sequence: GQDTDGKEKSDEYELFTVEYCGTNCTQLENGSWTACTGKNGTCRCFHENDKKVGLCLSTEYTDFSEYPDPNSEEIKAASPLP

[5] = target: T4, P1128_IXORI (Ixodes ricinus, UniProt A0A0K8R6B3 19-90); experiment: BLI [Cont.]
T4 sequence: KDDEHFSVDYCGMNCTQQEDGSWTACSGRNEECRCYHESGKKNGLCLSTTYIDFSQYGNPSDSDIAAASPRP

[6] = target: T5, P1162_IXORI (Ixodes ricinus, UniProt A0A0K8RDJ1 29-99); experiment: BLI [Cont.]
T5 sequence: B2 chain with H2N, E3D, D4E, I6L, K18Q, S20P

[7] = target: T6, P1166_IXORI (Ixodes ricinus, UniProt A0A0K8RE99 25-110); experiment: BLI [Cont.]
T6 sequence: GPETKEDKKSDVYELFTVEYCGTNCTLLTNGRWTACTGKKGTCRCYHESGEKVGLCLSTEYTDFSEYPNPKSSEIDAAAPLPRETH

[8] = target: T7, P1174_IXORI (Ixodes ricinus, UniProt V5I3C5 28-104); experiment: BLI [Cont.]
T7 sequence: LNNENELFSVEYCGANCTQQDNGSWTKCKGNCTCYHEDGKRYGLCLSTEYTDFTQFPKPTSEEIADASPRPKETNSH

[9] = target: T8, P1142_AMBCA (Amblyomma cajennense, UniProt A0A023FBW4 26-97); experiment: BLI [Cont.]
T8 sequence: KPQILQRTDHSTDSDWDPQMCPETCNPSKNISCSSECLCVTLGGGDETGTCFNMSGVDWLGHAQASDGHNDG

[10] = target: T9, P1096_IXORI (Ixodes ricinus, UniProt A0A0K8RKE4 24-114); experiment: BLI [Cont.]
T9 sequence: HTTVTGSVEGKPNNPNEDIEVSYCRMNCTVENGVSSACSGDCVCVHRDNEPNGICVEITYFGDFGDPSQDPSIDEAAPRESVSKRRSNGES

[11] = target: P1080_IXORI (Ixodes ricinus, UniProt A0A090XBL6 20-118); experiment: BLI [Cont.]
[12] = target: T10, P1127_IXORI (Ixodes ricinus, UniProt A0A0K8RJ67 29-108); experiment: BLI [Cont.]
T10 sequence: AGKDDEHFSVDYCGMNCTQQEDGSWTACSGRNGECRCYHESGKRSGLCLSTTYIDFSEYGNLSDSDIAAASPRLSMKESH

[13] = target: T11, P1095_IXORI (Ixodes ricinus, UniProt A0A0K8RCE3 24-112); experiment: BLI [Cont.]
T11 sequence: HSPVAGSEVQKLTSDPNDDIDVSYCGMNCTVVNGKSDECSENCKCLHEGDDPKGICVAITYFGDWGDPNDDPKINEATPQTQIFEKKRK

[14] = target: T12, P1132_IXORI (Ixodes ricinus, UniProt V5GZ08 29-106); experiment: BLI [Cont.]
T12 sequence: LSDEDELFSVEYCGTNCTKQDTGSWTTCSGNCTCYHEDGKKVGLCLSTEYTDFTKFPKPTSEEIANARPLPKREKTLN

[15] = target: T13, P1134_IXORI (Ixodes ricinus, UniProt A0A0K8RAI0 32-135); experiment: BLI [Cont.]
T13 sequence: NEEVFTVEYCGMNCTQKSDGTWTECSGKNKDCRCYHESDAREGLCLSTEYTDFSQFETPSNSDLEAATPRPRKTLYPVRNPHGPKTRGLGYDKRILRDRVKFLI

[16] = target: T14, P1170_IXORI (Ixodes ricinus, UniProt A0A0K8RD51 29-102); experiment: BLI [Cont.]
T14 sequence: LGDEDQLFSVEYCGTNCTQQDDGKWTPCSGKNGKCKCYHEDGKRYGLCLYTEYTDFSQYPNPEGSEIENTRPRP

[17] = target: T15, CXCL1_HUMAN (human, UniProt P09341 35-107); experiment: yeast surface display FACS re-test; note: test concentration or dose not given here
T15 sequence: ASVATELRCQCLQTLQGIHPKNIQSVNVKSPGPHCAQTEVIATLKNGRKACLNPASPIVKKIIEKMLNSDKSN

[18] = target: T16, CXCL8_HUMAN (human, UniProt P10145 28-99); experiment: yeast surface display FACS re-test; note: test concentration or dose not given here
T16 sequence: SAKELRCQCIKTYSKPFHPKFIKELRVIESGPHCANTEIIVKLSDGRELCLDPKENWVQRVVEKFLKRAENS

[19] = target: T17, CXCL14_HUMAN (human, UniProt O95715 35-111); experiment: BLI
T17 sequence: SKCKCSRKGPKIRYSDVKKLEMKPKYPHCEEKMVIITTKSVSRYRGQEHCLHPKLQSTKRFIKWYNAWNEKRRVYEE

[20] = target: CXCL12_HUMAN (human, UniProt P48061 22-89); experiment: BLI
[21] = target: T18, CXCL11_HUMAN (human, UniProt O14625 22-94); experiment: BLI
T18 sequence: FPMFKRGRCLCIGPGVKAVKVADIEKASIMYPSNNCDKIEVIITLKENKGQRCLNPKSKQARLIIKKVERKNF

[22] = target: T19, CXCL9_HUMAN (human, UniProt Q07325 23-125); experiment: BLI
T19 sequence: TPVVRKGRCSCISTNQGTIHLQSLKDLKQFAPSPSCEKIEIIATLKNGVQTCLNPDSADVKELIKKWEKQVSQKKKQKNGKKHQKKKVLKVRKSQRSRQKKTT

[23] = target: T20, CXCL10_HUMAN (human, UniProt P02778 22-98); experiment: BLI
T20 sequence: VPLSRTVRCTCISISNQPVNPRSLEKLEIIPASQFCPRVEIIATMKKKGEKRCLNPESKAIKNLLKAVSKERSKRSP

[24] = target: T21, CXCL13_HUMAN (human, UniProt O43927 23-109); experiment: BLI
T21 sequence: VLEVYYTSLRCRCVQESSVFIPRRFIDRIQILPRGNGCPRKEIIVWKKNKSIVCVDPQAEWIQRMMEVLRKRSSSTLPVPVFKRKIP

[25] = target: T22, CXCL2_HUMAN (human, UniProt P19875 35-107); experiment: BLI [Cont.]
T22 sequence: T15 sequence with S2P, V3L, P20L, N27K, R48Q, I58M, N68K, S69N, D70G

[26] = target: T23, CXCL3_HUMAN (human, UniProt P19876 35-107); experiment: BLI [Cont.]
T23 sequence: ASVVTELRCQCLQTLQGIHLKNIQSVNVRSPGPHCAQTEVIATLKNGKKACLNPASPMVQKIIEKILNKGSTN

[27] = target: T24, CXCL6_HUMAN (human, UniProt P80162 38-114); experiment: BLI [Cont.]
T24 sequence: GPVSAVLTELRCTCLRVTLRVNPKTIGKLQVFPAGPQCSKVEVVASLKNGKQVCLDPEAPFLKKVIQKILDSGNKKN

Chain of CXCL12_HUMAN (P48061 22-89 limits assumed): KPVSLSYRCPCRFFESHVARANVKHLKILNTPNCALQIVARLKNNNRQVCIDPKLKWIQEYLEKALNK
Chain of P1080_IXORI (A0A090XBL6 20-118): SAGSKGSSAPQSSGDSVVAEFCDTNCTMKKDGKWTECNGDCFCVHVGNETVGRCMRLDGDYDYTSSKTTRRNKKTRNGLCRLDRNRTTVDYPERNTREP

B1
binding result [1]: no binding (tested: 300 nM) | binding result [2]: no binding (tested: 300 nM) | binding result [3]: no binding (tested: 300 nM) | binding result [4]: no binding (tested: 300 nM) | binding result [5]: no binding (tested: 300 nM) | binding result [6]: no binding (tested: 300 nM) | binding result [7]: no binding (tested: 300 nM) | binding result [8]: no binding (tested: 300 nM) | Kd [9]: 381 nM | binding result [10]: no binding (tested: 300 nM) | Kd [11]: 2310 nM | binding result [12]: no binding (tested: 300 nM) | binding result [13]: no binding (tested: 300 nM) | binding result [14]: no binding (tested: 300 nM) | binding result [15]: no binding (tested: 300 nM) | binding result [16]: no binding (tested: 300 nM)

B2
% cells over threshold fluorescence [17]: 65% | % cells over threshold fluorescence [18]: 41% | binding result [19]: no binding (tested: 300 nM) | binding result [20]: no binding (tested: 300 nM) | binding result [21]: no binding (tested: 300 nM) | binding result [22]: no binding (tested: 300 nM) | binding result [23]: no binding (tested: 300 nM) | binding result [24]: no binding (tested: 300 nM) | Kd [25]: 26 nM | binding result [26]: no binding (tested: 300 nM) | binding result [27]: no binding (tested: 300 nM)
